Assay results from patent US20040071656A1, “Modulation of heat-shock-protein-based immunotherapies” (priority 2001, published 2004).
No end group written: not given here. *: point of attachment. Biotin = O=C1N[C@H]2[C@H](CS[C@H]2CCCCC(=O)*)N1

Target: Recombinant human His6-tagged Hsp70 (human), P0DMV8
Test: ELISA with streptavidin-peroxidase after gel filtration of Hsp70 loaded with biotinylated peptide C (ADP)

Sequence of Recombinant human His6-tagged Hsp70 (human), P0DMV8 (P0DMV8 2-641): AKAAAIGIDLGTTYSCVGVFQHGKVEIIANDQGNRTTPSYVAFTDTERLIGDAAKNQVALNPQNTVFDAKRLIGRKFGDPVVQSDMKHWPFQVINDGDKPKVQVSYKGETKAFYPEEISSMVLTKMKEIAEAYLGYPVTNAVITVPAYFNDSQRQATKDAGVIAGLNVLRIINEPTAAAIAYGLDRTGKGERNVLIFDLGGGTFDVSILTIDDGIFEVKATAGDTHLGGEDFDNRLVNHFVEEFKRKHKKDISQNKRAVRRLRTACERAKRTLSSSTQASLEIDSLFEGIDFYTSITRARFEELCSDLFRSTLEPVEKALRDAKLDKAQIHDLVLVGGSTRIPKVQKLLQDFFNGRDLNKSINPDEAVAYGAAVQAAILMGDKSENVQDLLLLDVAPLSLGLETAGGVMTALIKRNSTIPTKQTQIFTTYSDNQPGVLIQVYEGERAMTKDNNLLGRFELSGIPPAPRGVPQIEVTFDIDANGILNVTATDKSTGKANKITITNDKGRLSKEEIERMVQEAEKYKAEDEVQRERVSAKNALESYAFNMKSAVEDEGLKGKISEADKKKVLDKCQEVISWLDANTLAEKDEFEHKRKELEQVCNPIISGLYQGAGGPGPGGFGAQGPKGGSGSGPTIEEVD

yield of Hsp70 complex formation: 20 to 30%
B1: Biotinylated peptide C (biotin-…) (peptide)
peptide: Biotin-GCEVFGLGWRSYKH
